Source: the nanobody polyreactivity screen of Harvey et al. (2022)

Experiment: yeast display, Sf9 membrane polyspecificity reagent, FACS + sequencing; frameworks hold sequencing errors
Method in brief: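 Galactose induction of a Saccharomyces cerevisiae BJ5465 synthetic nanobody display library ran 36–48 hours. The cells were then stained for 1 hour at 4 °C with 10% biotinylated, detergent-solubilized Sf9 membrane reagent, pulled down on streptavidin microbeads and FACS-sorted into low and high (top ~1%) gates on expression and reagent-binding fluorescence. Labels for polyreactivity follow the gate of origin.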

Row | Sequence | polyreactivity (PSR sort gate)
1 | QVQLVESGGGVVQAGGSLRLSCAASGRIFGPYTMGWYRQAPGKERELVARISRRGGSTYYADSVKGRFTISRDNAKNTVYLQMNSLKPEDTAVYYCARSQAVYDGWFAKFGYWGQGTQVTVSS | low polyreactivity
2 | QVQLVESGGGVVQAGGSLRLSCAASGRIFHYNAMGWYRQAPGKERELVAAISTGGSSNYADSVKGRFTISRDNAKNTVYLQMNSLKPEDTAVYYCAADHPVTYPTSKFDYWGQGTQVTVSS | low polyreactivity
3 | QVQLVESGGGVVQAGGSLRLSCAASGRIFIWYDMGWYRQAPGKERELVAAITQSDDITYYADSVKGRFTISRDNAKNTVYLQMNSLKPEDTAVYYCAARVFETSTPYGYWGQGTQVTVSS | low polyreactivity
4 | QVQLVESGGGVVQAGGSLRLSCAASGRIFRNNAMGWYRQAPGKERVLVAGIRGGGSTYYADSVKGRFTISRDNAKNTVYLQMNSLKPEDTAVYYCNAEASRYVGYGAWQTERDYWGQGTQVTVSS | low polyreactivity
5 | QVQLVESGGGVVQAGGSLRLSCAASGRIFSSYAMGWYRQAPGKERELVAAITSGGSTDYADSVKGRFSISRDNAKNTVYLQMNSLKPEDTAVYYCAKAFLAPWTYSPYYMFYYWGQGTQVTVSS | low polyreactivity
6 | QVQLVESGGGVVQAGGSLRLSCAASGRIFVRNAMGWYRQAPGKERELVAAISRSGGSTSYADSVKGRFTISRDNAKTTVYLQMNSLKPEDTAVYDCAARYARYQYQYDYWGQGTQVTVSS | high polyreactivity
7 | QVQLVESGGGVVQAGGSLRLSCAASGRTFLVTALGWYRQAPGKERELVAVITRGGSTNYADSVKGRFTISRDNAKNTVYLQMNSLKPEDTAVYYCAKQFSPYRSYGPVVRYDYWGQGTQVTVSS | low polyreactivity
8 | QVQLVESGGGVVQAGGSLRLSCAASGRTIYFYAMGWYRQAPGKERELVAAITGSGGRTYYADSVKGRFTISRDHAKNTVYLQMNSLKTEDTAVYYCAAVPPPLARLYVAAKRFDSWGQGTQVTVSS | low polyreactivity
9 | QVQLVESGGGVVQAGGSLRLSCAASGSIFGVYAMGWYRQAPGQERELVAAIDSGSSTDYADSVKGRFTISRDNAKNTVYLQMNSLKPEDTAGYYCYPLDLAPVDYWGQGTQVTVSS | low polyreactivity
10 | QVQLVESGGGVVQAGGSLRLSCAASGSIFPYYVMGWYRQAPGKERELVAVISQSGGSTYYADSVKGRFTISRDNAKNTVYLQMNSLKPEDTAVYYCAAESAYDAYDYWGQGTQVTVSS | high polyreactivity
11 | QVQLVESGGGVVQAGGSLRLSCAASGSTFSYNAMGWYRQAPGKERELVAAITSTGRTYYADSVKGRFTISRDNAKNTVYLQMNSLKPEDTAVYYCNKRARSEQYSYNYGYYYWGQGTQVTVSS | high polyreactivity
12 | QVQLVESGGGVVQAGGSLRLSCAASGSTFTVNGMGWYRQAPGKERELVAAIVGGDGSTYYADSVKGRFTISRDNAMNTVYLQMNSLKPEDTAVYYCAADPPGFTQYGYWGQGTQVTVSS | low polyreactivity
13 | QVQLVESGGGVVQAGGSLRLSCAASGSTFYSYAMGWYRPAPGKERELVAAISWDGGRTYYADSVKGRFTISRDNAQNTVYLQMNSMKPEDTAVYYCAARKGELWFPQGGYNYSGQGTQVTVSS | low polyreactivity
14 | QVQLVESGGGVVQAGGSLRLSCAASGSTFYYNAMGWNRQAPGKERELVARISRSGGSTYADSVKGRFTISRDNAKNTVYLQMNSLKPEDTAVYYCNADAYGTPEFTSYAVRYDYWGQGTQVTVSS | low polyreactivity
15 | QVQLVESGGGVVQAGGSLRLSCSASGRTLDKNVMGWYRQAPGKERELVAAINTGGRTYYADSVKGRFTISRDNAKNTVYLQMNSLKPEDTAVYYCAKEGHVNPRPTVGGDYWGQGTQVTVSS | low polyreactivity
16 | QVQLVESGGGVVQAGGSLRLSFAASGSTFPGNAMGWYRQAPGKERELVASISGGGDSTYYADSVKGRFTISRDNAKNTVYLQMNSLKPEDTADYYCAARSTRGHYTAYDYWGQGTQVTVSS | low polyreactivity
17 | QVQLVESGGGVVQAGGSLRVSCAATGSIYYRSAMGWYRQAPGKERELVAAISVSGGSTYYADSVKGRFTISRDNAKITDYLQMNSLKPEDTAVYYCAAVVRYGYEYWGQGTQVTVSS | high polyreactivity
18 | QVQLVESGGGVVQAGGTLRLSCAASGSTFPKYAMGWYRQAPGKERELVAAISLSGVRTYYADSVKGRFTISRDNAKNTVYLQMTSLKPEDTAVYYCNAVFDRYPYRYDYWGQGTQVTVSS | high polyreactivity
19 | QVQLVESGGGVVQPGGSLSLSCAGSGITFWYYDLVWSRQAPGKERELVATITSSGSTYYADSVKGRFTISRDNAKNTVYLQKNSLKPEDTAVYFCAPQYGYSYYSGRYGYWGQGTQVTVSS | high polyreactivity
20 | QVQLVESGGGVVQSGGSLRLSCAASGRTFNHYAMGWYRQAPGKERELVAGITISGGSTYYADSVKGRFTISRDNAKNTVYLQMNSLKPEDTAVYYCNAVYDYYRQSKWTMDYWGQGTQVTVSS | low polyreactivity
21 | QVQLVESGGLIVQAGGSLRLSCAASRSTSRYSMGWYRQAPGKERELDAAITRSCGTTYYADSVKGRFTISRDNAKNSVYLQMNSLKPEDTAVYYCATSDRQVKDDYWGQGTQVTVSS | low polyreactivity
22 | QVQLVESGGRIVQAGGSLRLRCAASGSTFRWYAMGRYRQAPGKERQLVASITWSGGGTYYADSVKGRFTISRDNAKNTVYLQMNSLKPEDTAVYYCNRRTWRYETRGDDYWGQGTQVTVSS | high polyreactivity

Row | Sequence | polyreactivity (PSR sort gate)
23 | QVQLVESGGRIVQAGGSLRLSCAASGRIFWLNAMGRYRQAPGKEREFVASITYGSDSTYYADSVKGRFTISRDTATNTVYFQMNSLKPEDTAVYYCNREGWHYGPYGYWGQGTQVTVSS | low polyreactivity
24 | QVQLVESGGRIVQAGRSLRLTCAASGRTFRNYAMGWYRQAPGKEREFVAAITSRSSRTYYADSVKGRFTISRDNEKNTVYLQMNSLIPEDTAVYYCARGSELGYYAWVYYWGQGTQVTVSS | high polyreactivity
25 | QVQLVESGGRLDQAGGSLRLSCAASGSILSTYAMGWYRQPPVKERELVASISSNAGSTYYADSVKGRFTISLDNAKNTVSLQMNSLKPEDTAVYYCNKVYGGGTYDYWGQGTQVTVSS | low polyreactivity
26 | QVQLVESGGRLFQAGGSLRLSCAASRSIFSTYGKGWYRQPPGKERELVAAITSGVGRTNYADSVKGRFTISRDNAKNTVDLQMNSLKPEDTAVNYCAVRSLGTLDVYDLATEYDYWGQGTQVTVSS | low polyreactivity
27 | QVQLVESGGRLLQAGGSLRLSCAASGIIFVYYDMGWYRQAPGKERELVAVITESGVSTYYADSVKGRFTISRDNAKKTVYLQMNSLKPEDTAVYYCDTSVDRGLGYWGQGTQVTVSS | low polyreactivity
28 | QVQLVESGGRLLQAGGSLRLSCAASGSTISHYAMGWYRQAPGKEWELVATITVTGVRTYYADSVKGRFTISRDNAKNTVYLELNSLKPEDTAVYYCAVRPSTRGAQAQPWMYYWGQGTQVTVSS | low polyreactivity
29 | QVQLVESGGRLVQAGGILRLSCAASGRIFNRYAMGWSRQAPGKEREFVARITGSGGRTYYADSVKGRFTISRDNAKNTVYLQMNSLKPEDTAVYYCARDRGYQSGYDFWGQGSQVTVSS | high polyreactivity
30 | QVQLVESGGRLVQAGGILRLSCPASGSTFKKYAMGWYRQTPGKERELVASINSSAGSTYYADSVKGRFTISRDNAKNTVYLQMNSLKPEDTAVYYCATCQKVYSGRYDYWGQGTQVTVSS | low polyreactivity
31 | QVQLVESGGRLVQAGGSLPLSCAASGFIFRYYAMGWYRQAPGKERELVAAIDYSGGSTNYADSVKGRFTISRDNAKNTVYLQMNSLKPEDTAVYYCNAEYTWHRGYDYWGQGTQVTVSS | low polyreactivity
32 | QVQLVESGGRLVQAGGSLRISCAASGNTFVRYAMGWYRQAPGKQSELVASISTSGGSTYYADSVKGRFTISRDNAKNTVYLQMNSLKPQDTAVYYCAARLPRTRYWEDFWGQGTQVSVSS | high polyreactivity
33 | QVQLVESGGRLVQAGGSLRLICAASGSICTHNAMGWYRQAPGKERELVADITSSVSSTYYADSVKGRFTISRDNSKNTVDLQMNSLKPEDTSVYYCAGGVGRGMYYWGQGTQVTVSS | low polyreactivity
34 | QVQLVESGGRLVQAGGSLRLICAASGSTFYPYAMGWYRQAPGKERELSTDADSVKGRFTISRDNAKNSVYLQMNSLKPEDTAVYYCAALHWRWYDYWGQGTQVTVSS | low polyreactivity
35 | QVQLVESGGRLVQAGGSLRLRCAASGFIFLVNAMGWYRQARGKESELVAAITTSGASTYYADSVKGRFTISRDNAKNTVYLQMNSLKPEDTAVYYCAAGSYARPEYGYWGQGTQVTVSS | low polyreactivity
36 | QVQLVESGGRLVQAGGSLRLSCAASGFIYTPNTMGWYRQAHRKERELVAAITTNGGRTYYADSVKGRFTISRDNAKNTVYFQMNSVKPEDTAVYYCAARYVSSFGLHAQVWSYYYWGLGTQVTVSS | high polyreactivity
37 | QVQLVESGGRLVQAGGSLRLSCAASGFTFARYAMGWYRQAPGKERELVARISSDGGGTDYADSVKGRFTISRDNAKNTVYLQMNSLKPEDTAVYYCYADPYSRFWGPDYGYWGQGTQVTVSS | low polyreactivity
38 | QVQLVESGGRLVQAGGSLRLSCAASGFTFPVYAMGWYRQAPGKERELVAVIRLTGGRTYYADSVKGRFTISRDNAKNTVYLQMNSLKPVDTAVYYCAAGSRSGYGYWGQGTQVTVSS | high polyreactivity
39 | QVQLVESGGRLVQAGGSLRLSCAASGFTFRYYAMGWYRQAPGKERELVAAITWSGGRTYYADSVKGRFTISRDNAKNTVFLQMNSLKPEDTAVYSSNTPSLWYGEDYWGHGTQVTVSS | high polyreactivity
40 | QVQLVESGGRLVQAGGSLRLSCAASGGIFTAYTMGWYRQAPGKESELVAVISSGGGRTYYADSVKGRFTISRDNAKNTVYLQMNSLKPEDTAVYYCNARVYVSANKYDYWGQGTQVTVSS | high polyreactivity
41 | QVQLVESGGRLVQAGGSLRLSCAASGHIFFYYTMGRYRPGPGKERELVAGITIGGSTNYADSVKGRFTISRDNAKNTVYLLMNSLKPADTAVYYCNVVKYVYISSYWEYYYWGQGAQVTVSS | low polyreactivity
42 | QVQLVESGGRLVQAGGSLRLSCAASGITQGYYAMGWYRQAPGKERELVAAISYRGGNTYYADSVKGRFTISRDNAKNTVYLQMNSLKPEDTAVYYCNADLGYESGWWSKYDYWGQGTQVTVSS | low polyreactivity
43 | QVQLVESGGRLVQAGGSLRLSCAASGLIFNDNAMGWYRQAPGKERELVAAISWGGGTTYYADSVKGRFSNSRDNAKYTVFLQMNSLKPEDTAVYYCAAEEAMFYDFYYVLLDYWGQGTQVTVSS | high polyreactivity
